Results: patent publication US20090138978A1 (GENERAL HOSPITAL, published 2009)
Where a chain is given by its changes, count along the chain named. In names and notes the source's numbering stands.

Tests used:
[1] = molecular target: human PDX-1/IPF-1 mutant P63fsdelC, [35S]-radiolabeled in vitro translated (human) (UniProt P52945); assay: GST pull-down with [35S]-labelled human PDX-1 proteins; reference is wild-type human PDX-1
[2] = molecular target: p300 (full-length histone acetyltransferase and nuclear receptor coactivator) (UniProt Q09472); assay: cell-based or functional assay
[3] = molecular target: Gal4-PDX-1 (Gal4 fusion protein of PDX-1) (UniProt P04386); assay: cell-based or functional assay
GST-p300 (1572-2370) = molecular target: T1, GST-p300 (1572-2370) (UniProt Q09472 1572-2370); assay: GST pull-down with [35S]-labelled in vitro translated Bridge-1
T1 construct: also called carboxy-terminal segment of p300; not shown: glutathione S-transferase
T1 sequence (looked up): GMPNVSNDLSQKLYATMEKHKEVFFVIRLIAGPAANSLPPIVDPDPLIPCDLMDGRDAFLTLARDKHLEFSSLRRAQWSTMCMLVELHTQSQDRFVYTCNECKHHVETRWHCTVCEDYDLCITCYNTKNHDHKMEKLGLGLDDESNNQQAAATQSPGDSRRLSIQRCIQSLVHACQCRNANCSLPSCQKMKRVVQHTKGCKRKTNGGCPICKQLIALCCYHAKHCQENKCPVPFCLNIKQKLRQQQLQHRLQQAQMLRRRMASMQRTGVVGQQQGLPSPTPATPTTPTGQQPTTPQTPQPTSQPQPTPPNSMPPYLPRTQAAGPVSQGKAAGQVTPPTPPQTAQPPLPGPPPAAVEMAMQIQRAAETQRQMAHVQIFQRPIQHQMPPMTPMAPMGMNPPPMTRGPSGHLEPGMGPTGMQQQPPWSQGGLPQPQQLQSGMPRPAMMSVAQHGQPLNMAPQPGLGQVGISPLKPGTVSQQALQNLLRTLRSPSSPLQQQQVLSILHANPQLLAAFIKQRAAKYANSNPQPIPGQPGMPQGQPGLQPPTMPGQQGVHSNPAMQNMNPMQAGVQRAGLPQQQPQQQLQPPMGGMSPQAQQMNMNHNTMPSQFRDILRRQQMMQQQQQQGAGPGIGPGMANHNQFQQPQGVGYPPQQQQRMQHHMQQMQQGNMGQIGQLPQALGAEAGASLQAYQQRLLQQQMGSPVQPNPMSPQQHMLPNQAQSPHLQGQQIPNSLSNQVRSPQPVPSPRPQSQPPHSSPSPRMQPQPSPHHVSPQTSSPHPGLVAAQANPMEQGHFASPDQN

[4] = molecular target: T2, p300 (full-length histone acetyltransferase and nuclear receptor coactivator) (UniProt Q09472 2-2414, limits assumed, [35S]-methionine labelled in the pull-down assays); assay: GST pull-down with [35S]-labelled in vitro translated p300
T2 construct: mature; In vitro translated in rabbit reticulocyte lysate for the pull-downs; Expressed from pCMV-p300 in BHK cells for the reporter assay; also called [35S]-p300; radiolabeled in vitro translated full-length p300

[5] = molecular target: T3, LexA-rat PDX-1 bait fusion protein (PDX-1 amino acids 160-283) (rat, UniProt P52947 160-283); assay: yeast two-hybrid interaction trap; - means no growth on leucine dropout plates and white colonies on X-gal plates
T3 construct: range 160-283; also called carboxy-terminal PDX-1 protein fragment; not shown: LexA moiety encoded by the yeast bait vector pEG202
T3 sequence (P52947 160-283 limits assumed): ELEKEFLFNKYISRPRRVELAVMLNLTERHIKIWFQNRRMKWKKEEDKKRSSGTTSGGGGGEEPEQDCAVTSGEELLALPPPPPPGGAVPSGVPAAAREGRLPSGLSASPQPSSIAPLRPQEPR

human PDX-1/IPF-1 mutant P63fsdelC, [35S]-radiolabeled in vitro translated (human), sequence (P52945 1-62, stated change not applied): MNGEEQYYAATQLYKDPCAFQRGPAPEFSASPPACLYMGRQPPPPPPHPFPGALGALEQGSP
p300 (full-length histone acetyltransferase and nuclear receptor coactivator) (UniProt Q09472), sequence (Q09472 2-2414 limits assumed): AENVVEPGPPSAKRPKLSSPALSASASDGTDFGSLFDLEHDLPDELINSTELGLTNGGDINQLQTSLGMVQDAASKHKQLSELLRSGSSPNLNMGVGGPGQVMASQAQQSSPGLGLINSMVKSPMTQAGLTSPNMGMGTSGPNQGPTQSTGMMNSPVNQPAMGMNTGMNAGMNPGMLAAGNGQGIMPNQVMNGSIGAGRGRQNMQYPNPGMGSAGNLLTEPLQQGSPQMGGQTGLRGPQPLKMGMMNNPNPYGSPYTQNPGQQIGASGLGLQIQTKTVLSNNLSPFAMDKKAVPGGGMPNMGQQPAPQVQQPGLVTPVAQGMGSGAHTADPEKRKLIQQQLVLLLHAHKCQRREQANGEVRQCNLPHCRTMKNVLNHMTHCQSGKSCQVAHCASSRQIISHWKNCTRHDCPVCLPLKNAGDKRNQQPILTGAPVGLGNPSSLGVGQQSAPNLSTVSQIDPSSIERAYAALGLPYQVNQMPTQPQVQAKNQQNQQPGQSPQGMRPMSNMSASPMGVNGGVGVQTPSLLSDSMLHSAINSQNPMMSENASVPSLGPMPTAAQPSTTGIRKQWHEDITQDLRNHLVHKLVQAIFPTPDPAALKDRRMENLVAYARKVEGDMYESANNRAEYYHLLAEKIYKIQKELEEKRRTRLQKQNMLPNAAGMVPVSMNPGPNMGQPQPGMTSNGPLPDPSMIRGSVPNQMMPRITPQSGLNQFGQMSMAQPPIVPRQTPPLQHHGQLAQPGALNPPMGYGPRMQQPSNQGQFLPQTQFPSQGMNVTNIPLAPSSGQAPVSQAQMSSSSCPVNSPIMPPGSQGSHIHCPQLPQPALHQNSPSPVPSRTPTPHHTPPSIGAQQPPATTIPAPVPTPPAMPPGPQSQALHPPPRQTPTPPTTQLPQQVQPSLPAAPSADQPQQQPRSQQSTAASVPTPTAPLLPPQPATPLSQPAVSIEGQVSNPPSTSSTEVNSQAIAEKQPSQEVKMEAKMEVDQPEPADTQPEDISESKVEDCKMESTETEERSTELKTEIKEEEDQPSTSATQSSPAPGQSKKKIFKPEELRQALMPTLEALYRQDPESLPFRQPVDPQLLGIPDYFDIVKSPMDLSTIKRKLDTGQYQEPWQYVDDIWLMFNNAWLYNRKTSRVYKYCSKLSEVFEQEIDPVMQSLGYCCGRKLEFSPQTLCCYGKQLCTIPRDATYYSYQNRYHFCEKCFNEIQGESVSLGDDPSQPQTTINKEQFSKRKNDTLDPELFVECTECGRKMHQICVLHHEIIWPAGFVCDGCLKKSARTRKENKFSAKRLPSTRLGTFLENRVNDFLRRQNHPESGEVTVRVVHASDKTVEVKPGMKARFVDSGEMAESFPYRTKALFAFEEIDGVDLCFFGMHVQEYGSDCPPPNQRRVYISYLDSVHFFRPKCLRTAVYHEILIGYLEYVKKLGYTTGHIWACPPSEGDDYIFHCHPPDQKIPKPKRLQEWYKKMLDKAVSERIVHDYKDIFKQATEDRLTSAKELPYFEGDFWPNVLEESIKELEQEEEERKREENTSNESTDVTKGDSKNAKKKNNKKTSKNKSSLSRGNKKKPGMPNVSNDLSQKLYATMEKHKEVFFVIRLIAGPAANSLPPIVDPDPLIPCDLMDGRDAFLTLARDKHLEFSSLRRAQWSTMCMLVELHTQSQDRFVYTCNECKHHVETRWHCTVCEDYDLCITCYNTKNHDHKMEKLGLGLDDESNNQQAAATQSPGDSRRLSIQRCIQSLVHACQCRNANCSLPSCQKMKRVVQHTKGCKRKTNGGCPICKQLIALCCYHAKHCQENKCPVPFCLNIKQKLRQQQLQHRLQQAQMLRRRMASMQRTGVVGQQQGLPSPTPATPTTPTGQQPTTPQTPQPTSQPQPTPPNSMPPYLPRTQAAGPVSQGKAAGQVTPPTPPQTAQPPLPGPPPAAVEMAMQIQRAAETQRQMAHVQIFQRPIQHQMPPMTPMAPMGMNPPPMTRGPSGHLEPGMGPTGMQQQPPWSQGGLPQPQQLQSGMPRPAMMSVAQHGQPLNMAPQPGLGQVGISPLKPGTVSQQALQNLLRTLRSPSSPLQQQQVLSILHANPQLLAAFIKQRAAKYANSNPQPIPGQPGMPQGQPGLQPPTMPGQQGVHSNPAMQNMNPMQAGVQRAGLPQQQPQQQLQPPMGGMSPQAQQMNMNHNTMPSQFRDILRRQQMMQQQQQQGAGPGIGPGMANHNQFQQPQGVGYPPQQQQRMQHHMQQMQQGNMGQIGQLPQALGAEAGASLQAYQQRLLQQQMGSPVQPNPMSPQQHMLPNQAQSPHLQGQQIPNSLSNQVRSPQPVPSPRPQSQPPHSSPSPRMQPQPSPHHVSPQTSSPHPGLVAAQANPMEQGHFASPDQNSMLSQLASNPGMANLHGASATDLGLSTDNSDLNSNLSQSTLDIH
T2 sequence (Q09472 2-2414 limits assumed): as above

GST-Bridge-1 (glutathione-S-transferase fused to full-length rat Bridge-1) (from UniProt P08515 1-218)
fold stronger interaction as compared to the wild-type PDX-1 protein [1]: > 2 fold

Gal4-Bridge-1 (Gal4 DNA-binding domain fused to full-length rat Bridge-1) (from UniProt P04386 1-147)
activation of a Gal4-CAT reporter in transfected BHK cells [2]: > 70 fold
activation of a Gal4-CAT reporter in transfected BHK cells [3]: 76 fold

B1: rat Bridge-1 (full-length, 1-222) (other)
chain: MSSEEVRHRAESSEARAAAVSDIQELMRRKEEIEAQIKANYDVLESQKGIGMNEPLVDCEGYPRADVDLYQVRTARHNIICLQNDHKALMKQVEEALHQLHARDKEKQARDMAEAREEAMNRRLASDSPALPKAFARVNSISPGSPASIAGLQVDDEIVEFGSVNTQNFQSLQNVGTVVQHSEGKPLNVMVIRRGEKHQLRLTPTRWAGKGLLGCNITPLQR
modifications: [35S]-methionine labelled in the pull-down assays
notes: In vitro translated from pcDNA3-Bridge-1 in rabbit reticulocyte lysate for the pull-downs; Expressed from the same vector in BHK and HeLa cells for the reporter assays; also called [35S]-Bridge-1; radiolabeled in vitro translated Bridge-1
binding result (GST-p300 (1572-2370)): no binding

B2: GST-Bridge-1 (D156P) (other)
chain: B1 chain with D156P
notes: also called mutant GST-Bridge-1 fusion protein D156P; not shown: N-terminal glutathione-S-transferase carrier encoded by pGEX-5X-1, plus the short vector-derived linker
binding result [4]: no binding

B3: rat inhibitor of differentiation-3 (Id3) (yeast interaction trap control protein) (other, UniProt P41138 1-119, looked up)
chain: MKALSPVRGCYEAVCCLSERSLAIARGRGKSPSAEEPLSLLDDMNHCYSRLRELVPGVPRGTQLSQVEILQRVIDYILDLQVVLAEPAPGPPDGPHLPIQTAELTPELVISKDKRSFCH
notes: Control protein tested against the PDX-1 bait
binding result [5]: no binding
